According to patent US20260009052, “CAS12 PROTEINS AND USES THEREOF” (GUANGZHOU REFORGENE MEDICINE CO., LTD., published 2026):
Numbering of substitutions follows the chain as printed.

Experiments:
[1] = molecular target: T1, C12-279 D352R (synthetic construct, D352R); experiment: cell_activity; PAM TTG; +/-0.22
T1 chain: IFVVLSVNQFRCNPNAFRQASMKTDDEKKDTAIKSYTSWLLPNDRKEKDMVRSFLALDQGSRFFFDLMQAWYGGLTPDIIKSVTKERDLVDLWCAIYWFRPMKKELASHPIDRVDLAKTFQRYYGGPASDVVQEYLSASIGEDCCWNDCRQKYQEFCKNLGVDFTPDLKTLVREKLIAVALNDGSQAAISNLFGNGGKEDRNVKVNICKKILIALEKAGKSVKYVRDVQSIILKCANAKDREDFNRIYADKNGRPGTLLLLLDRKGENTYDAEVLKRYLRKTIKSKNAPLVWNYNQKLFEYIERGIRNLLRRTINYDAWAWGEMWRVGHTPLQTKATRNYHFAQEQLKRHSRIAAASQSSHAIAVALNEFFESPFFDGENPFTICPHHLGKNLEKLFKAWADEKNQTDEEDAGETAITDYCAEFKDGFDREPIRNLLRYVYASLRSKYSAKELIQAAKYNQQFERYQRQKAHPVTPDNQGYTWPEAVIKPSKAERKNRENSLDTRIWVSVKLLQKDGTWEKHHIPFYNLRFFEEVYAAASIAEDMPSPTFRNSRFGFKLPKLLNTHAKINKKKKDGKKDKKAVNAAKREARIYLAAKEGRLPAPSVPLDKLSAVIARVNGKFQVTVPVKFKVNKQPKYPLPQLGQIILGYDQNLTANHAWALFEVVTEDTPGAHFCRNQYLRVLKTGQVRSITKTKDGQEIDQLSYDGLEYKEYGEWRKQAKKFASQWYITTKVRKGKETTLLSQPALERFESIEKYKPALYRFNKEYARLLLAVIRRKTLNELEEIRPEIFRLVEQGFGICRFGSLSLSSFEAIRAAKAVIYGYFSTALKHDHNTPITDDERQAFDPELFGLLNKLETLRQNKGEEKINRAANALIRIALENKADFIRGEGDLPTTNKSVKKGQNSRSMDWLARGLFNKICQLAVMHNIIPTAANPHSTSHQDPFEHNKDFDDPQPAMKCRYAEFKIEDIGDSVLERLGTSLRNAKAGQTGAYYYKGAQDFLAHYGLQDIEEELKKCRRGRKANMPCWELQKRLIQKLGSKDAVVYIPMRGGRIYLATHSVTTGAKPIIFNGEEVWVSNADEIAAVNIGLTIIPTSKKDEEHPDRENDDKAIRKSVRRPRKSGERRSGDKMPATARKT
Experimental: (§1) Transfection: transfection was performed 12-14 h after plating. 1.5 μL PEI (Yeasen Biotechnology, 40815ES03, Polyethylenimine Linear (PEI) MW25000) and 500 ng mutation clone plasmid were added to 100 μL Opti-MEM per well of the 24-well plate, mixed, and added to the NAAN cell line for cell transfection after placing at room temperature for 20 min. After overnight transfection, a fresh culture medium was replaced, and the culture was continued for 72 h, followed by flow cytometry. Editing efficiencies of different mutant clones were characterized by the proportion of GFP-positive cells.
(§2) Editing efficiency of some selected mutants was tested in Reporter3 cell line using the same manner as described for the NAAN reporter system, except that the cell line was changed from NAAN cell line to Reporter3 cell line.

[2] = molecular target: T2, C12-279 Mut-02 (synthetic construct, Q186R,D352R); experiment: cell_activity; PAM TTG; +/-0.25
T2 chain: T1 chain with Q186R
Experimental: as §1, §2

B1: C12-279 Reporter3 sgRNA ; Reporter3 target (ssRNA ; dsDNA)
RNA: GUAAUGCGUCUCCCAUUGACGCCUCACCUCGCGACGCAAUGAUG
DNA 1: CTCACCTCGCGACGCAATGATG
DNA 2: CATCATTGCGTCGCGAGGTGAG
binding signal [1]: 1.18 fold of C12-279
binding signal [2]: 1.39 fold of C12-279
